Data: the RNAGym collection of RNA variant scans (doi:10.7554/elife.80360)

B1: HDV Ribozyme (parent)
chain: GGCCGGCAUGGUCCCAGCCUCCUCGCUGGCGCCGGCUGGGCAACAUUCCGAGGGGACCGUCCCCUCGGUAAUGGCGAAUGGGACCCA

Variants of: B1
Test: self-cleavage, relative activity (ratio to wild type); higher = more cleavage; co-transcriptional

Row | Variant | self-cleavage
1 | G2U C14A | 0.12
2 | G1U U79A | 0.178
3 | G1U U79C | 0.332
4 | G1C G39U | 0.116
5 | G1C G39A | 0.203
6 | G1U G73C | 0.231
7 | G1U G73U | 0.422
8 | G1C C57A | 0.284
9 | G2U C75U | 0.021
10 | G2U G81C | 0.0779
11 | G2A C19U | 0
12 | C3A C13G | 0.0396
13 | C3A C13U | 0.213
14 | G1C U60G | 0.0594
15 | G1C G68U | 0.17
16 | G2U A8C | 0
17 | G2C C58U | 0.0256
18 | G2C U47A | 0.0208
19 | G1U C85G | 0.383
20 | G2U A87G | 0.0468
21 | G1C C4U | 0.0489
22 | G1C C33A | 0.222
23 | G2U G5U | 0.0163
24 | G2U G5A | 0.0171

Row | Variant | self-cleavage
25 | G1U G39A | 0.24
26 | G2A C4A | 0.0615
27 | G2A C4G | 0.0563
28 | G2U G29U | 0.0712
29 | G2C A42C | 0.122
30 | G2C G11C | 0.155
31 | G1C G31A | 0.0302
32 | G1U G67U | 0.332
33 | G1U C66A | 0.535
34 | G1U C66G | 0.211
35 | G1C C61A | 0.208
36 | G2U A77C | 0.0674
37 | G2C U69A | 0.0252
38 | G2C U69G | 0.157
39 | G2A C63A | 0.198
40 | G2U C58A | 0.0494
41 | G2U C58G | 0
42 | G2U G25U | 0.0449
43 | G2A A56U | 0.115
44 | G2A A56C | 0.148
45 | G2A G34A | 0.0536
46 | G2U C85G | 0.0966
47 | G2A U60G | 0.314
48 | G2A U60A | 0.208

Row | Variant | self-cleavage
49 | G1C U37A | 0
50 | G1U U69G | 0.435
51 | G1C C13G | 0.0791
52 | G2U G11A | 0.0304
53 | G2U G11U | 0.0529
54 | G2U G11C | 0.0314
55 | G2U G73U | 0.0361
56 | G1U G81A | 0.25
57 | G2U G39C | 0.0125
58 | G2C G17U | 0.0784
59 | G2U U9A | 0.0237
60 | G2U A71C | 0.0161
61 | G2A G5A | 0.0343
62 | G2A U72G | 0.0906
63 | G2A U72C | 0.0455
64 | G1U | 0.391
65 | C3A A51U | 0.599
66 | G1U C24G | 0.447
67 | G1U C24A | 0.183
68 | G1C C19U | 0
69 | G2U U27G | 0.0791
70 | G2C C26G | 0.113
71 | G2U G28A | 0.0164
72 | G1U G80C | 0.272

Row | Variant | self-cleavage
73 | G1U G80A | 0.355
74 | G1C U72A | 0.32
75 | G1C U72C | 0.111
76 | G1U U46A | 0.443
77 | G1U C26G | 0.469
78 | G1U C57U | 0.428
79 | G1U C57G | 0.196
80 | G1U C57A | 0.423
81 | G2A C33A | 0.0548
82 | G1C A87G | 0.0712
83 | G2U A42C | 0.0297
84 | G1U U37C | 0.415
85 | G2C A51C | 0.0308
86 | G2C A51U | 0.0468
87 | G1U A78U | 0.415
88 | G1U A78C | 0.293
89 | G1U G68A | 0.496
90 | G2C U12C | 0.175
91 | G2C C3U | 0.102
92 | G2C C3A | 0.103
93 | G1C C26U | 0.0898
94 | G1U G38U | 0.295
95 | G1U C18A | 0.304
96 | G1U C18U | 0.315

Row | Variant | self-cleavage
97 | G1U G6C | 0.656
98 | G2A C7A | 0
99 | G2C C62G | 0.0852
100 | G2C G38U | 0.0764
101 | G2A C85U | 0.115
102 | G2C C7U | 0.089
103 | G2U C3A | 0.0484
104 | C3A C7A | 0.044
105 | C3A C7G | 0.0223
106 | G1U G28U | 0.295
107 | G1U C49G | 0.181
108 | G2A C84G | 0.0391
109 | G1U A77U | 0.146
110 | G2A C14A | 0.0804
111 | G2A A51G | 0.141
112 | G2U C13U | 0
113 | G2A G82A | 0.0852
114 | G2A G82U | 0.0468
115 | G2U G54U | 0.0589
116 | G2C C21G | 0.0396
117 | G2C C21U | 0.0615
118 | G1C G53A | 0.193
119 | G2U G59C | 0.0323
120 | G2A G35C | 0.0326

Row | Variant | self-cleavage
121 | G2U C48A | 0.0378
122 | G1C A78U | 0.0755
123 | G1U C41A | 0.496
124 | G2U C15A | 0.0231
125 | G1U G50U | 0.466
126 | G1C A77U | 0
127 | C3A A70G | 0.686
128 | G2C U37G | 0
129 | G2C C86G | 0.0252
130 | G2C G53C | 0.125
131 | G1U U47C | 0.475
132 | G1U C84U | 0.389
133 | G1U C36A | 0.158
134 | G2C C75U | 0.0594
135 | G2A C32U | 0.194
136 | G2U U79C | 0.0434
137 | G2C C13U | 0.153
138 | G2U C62U | 0.0314
139 | G2U U20A | 0.0563
140 | G2U U20C | 0
141 | G2C A70C | 0.0248
142 | G2U G74U | 0.056
143 | G2U G74A | 0.0163
144 | G2U C57G | 0.109

Row | Variant | self-cleavage
145 | G1C G5U | 0.175
146 | C3A C4U | 0.0341
147 | C3A C4A | 0.0542
148 | G1C U9A | 0.0978
149 | G2A C3G | 0.123
150 | G2U U69A | 0.0222
151 | G2U U69G | 0.0475
152 | G1U C13U | 0.326
153 | G1C G25C | 0
154 | G2U C21A | 0.0437
155 | G2U C21U | 0.0542
156 | G2C C36G | 0.26
157 | G2A U12G | 0.0405
158 | G2A U12A | 0
159 | C3A A42C | 0.162
160 | G2C G34C | 0
161 | G2A C13A | 0.0231
162 | G2A C13G | 0.0282
163 | G1U A83U | 0.358
164 | G2C G29C | 0.109
165 | G1U C19U | 0.28
166 | G2A U20C | 0.0536
167 | G1C C3A | 0.234
